Target: T1, protein C (PC) (UniProt P04070 43-461)
T1 construct: Commercial PC
Assay: inhibition by rhsEPCR 2 µM of PC activation by thrombin on EA.hy926 endothelial cells; Ki derived from the shift of Km
Description: Proc Natl Acad Sci USA. 1996; 93:10212-6). 5×10⁴ cells/well were incubated in a 96-well plate with 0.02 U/ml of thrombin (0.17 nM) (ERL, Swansea, United Kingdom) and growing concentrations of PC (Baxter, Deerfield, Ill., USA) between 50 and 1000 nM in Tris 20 mM buffer, pH 7.4, supplemented with NaCl 150 mM, CaCl₂ 5 mM, MgCl₂ 0.6 mM, 1% BSA, 0.001% Tween-20 and 0.02% NaN₃. After 45 minutes at room temperature, lepirudin was added (Schering A G, Berlin, Germany) at an end concentration of 0.2 μmol/L, to inhibit thrombin; 3-4 minutes later, chromogenic substrate S-2366 was added (Chromogenix, Milan, Italy) at an end concentration of 0.4 mM with the purpose of monitoring its proteolysis by APC. The increase in absorbance at 405 nm was recorded kinetically with a microplate reader (iEMS REader, Labsystems, Finland). Curve data fitting to the Michaelis-Menten equation was carried out using the Enzfitter program (Biosoft, Cambridge, United Kingdom), which calculated the Km of PC activation under those conditions. Where necessary, 45 μg/ml of purified anti-EPCR autoantibodies from patients (see below) were added simultaneously with the thrombin and PC. Thus, the effect of the anti-EPCR autoantibodies upon PC activation could be analyzed. […]

T1 sequence (P04070 43-461): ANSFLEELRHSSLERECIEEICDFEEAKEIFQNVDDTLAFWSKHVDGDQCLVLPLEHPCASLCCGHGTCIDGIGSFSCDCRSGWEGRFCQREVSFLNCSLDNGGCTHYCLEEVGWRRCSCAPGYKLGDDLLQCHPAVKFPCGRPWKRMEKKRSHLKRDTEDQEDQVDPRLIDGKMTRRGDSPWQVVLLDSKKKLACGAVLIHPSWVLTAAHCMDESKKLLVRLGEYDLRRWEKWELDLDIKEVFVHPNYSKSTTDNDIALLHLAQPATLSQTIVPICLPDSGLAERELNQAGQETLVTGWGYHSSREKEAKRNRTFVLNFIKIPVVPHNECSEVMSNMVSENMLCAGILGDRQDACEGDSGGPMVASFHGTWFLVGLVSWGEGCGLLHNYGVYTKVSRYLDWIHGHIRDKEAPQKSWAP

- Ki: ~70 nM
B1: recombinant human soluble EPCR (rhsEPCR) (receptor)
chain: SISQDASDGLQRLHMLQISYFRDPYHVWYQGNASLGGHLTHVLEGPDTNTTIIQLQPLQEPESWARTQSGLQSYLLQFHGLVRLVHQERTLAFPLTIRCFLGCELPPEGSRAHVFFEVAVNGSSFVSFRPERALWQADTQVTSGVVTFTLQQLNAYNRTRYELREFLEDTCVQYVQKHISAENTKGSQTSRSYTSAAASFLEQKLISEEDLNSAVDHHHHHH
notes: also called recombinant sEPCR; human recombinant EPCR in soluble form
